The subject of series [1] is HeLa Kyoto. Briefly: solubility in G1/S (NP-40 vs SDS abundance) (log2 ratio); higher = more soluble. The conditions noted are these: cell cycle stage: G1/S.
The test system of series [2] is HeLa Kyoto. Briefly: solubility change mitosis vs G1/S (difference of NP-40 vs SDS log2 ratios) (log2 ratio difference); higher = more soluble in mitosis.

The values that follow come from the supplement of paper PMC5998384.
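Wherever solubility change mitosis vs G1/S (difference of NP-40 vs SDS log2 ratios) is given: synchronized HeLa Kyoto cells (double thymidine block for G1/S, nocodazole release for mitosis), protein amounts in NP-40 versus SDS lysates quantified by mass spectrometry, three biological replicates.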
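Wherever solubility in G1/S (NP-40 vs SDS abundance) is given: HeLa Kyoto cells arrested at G1/S by double thymidine block, proteins quantified by TMT10plex mass spectrometry in mild NP-40 versus SDS extracts, three biological replicates.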

Take “MGVQGFQEFLEKRCPGAVVPVDLLKLARTVSRQQQQQHLHRQLPPTAALAPGAPRAARGSVPLQPPLPPAALGAYSGGAGPTRHHHPAHHFHHHGQAQPGLHPPLPPPPPPQLPGARVLVDAGSALPRLYGGYQTDWVCGGQWNAMLGYLSALCQACAYPGGDGLELVVMFPGGLGKDRLAEWGRRCQAERQTAQLIVGHVGNKGTPPPRAWFLPPACLSHCVRLALIRFRVKVFQSLEDHHLEVVAFFRENGFHGLLAHDSEYALYNIPSYYSSHALKLSWNGKNLTTNQFLMQEVAKQLGLKRMNFPIFAALLGNHILPDEDLAAFHWSLLGPEHPLASLKVRAHQLVLPPCDVVIKAVSEYVSSIKDPSNLDVVGKDVFKQSQSRTEDKIERFKKAVEYYSVTTKLSSLPVGPSFLGFRNNRLGNPPLPRNQVGTISAGKPMFSHQVPQKVKYPPPFPVGPNSSLLFSSHALGESHAFSEDPMLQNSPFANWAVSYDSSASQFPNYLPSKASPPLGPDSSHSSSSDGDEPNGASSDHITEAFHHQPEWGNPNRDRGSWAQPVDTGVSEASLGDGEPHIPSLLSMSTRNHMDITIPPLPPVAPEVLRVAEHRHRRGLMYPYIYHVLTKGEIKIPVCIEDECNMELPPAALLFRSARQYVYGVLFSLAETQRKMERLAMRRRLPVEVPSVILKEWSAYKGKSPQTPELVSALTFREWTCPNLKKLWLGKAVEDKNRRMRAFLACMKSDTPSMLNPANVPTHLLLMCCVLRYMVQWPGGRILHRHELDTFLAQAVSTQLYEPDRLQELKIEKLDARGIQLAALFMSGVDTALFANDACGQPVPWEHCCPWIYFDGKLFQSKLIKAGRERVSLVELCDGQADLATKVEKMRQSILEGVNMNHPPPSALLPSPTFVPPMVPSLYPVSLYSRAMGSMPLPPQGRSRGFAGLHPIPPQGGKLEIAGMVVGQWAGSRSSRGRGSFGMQVVSVGGPGKGHGKEQTGRGSKGHKKGNKQGSSDGVSKSLELHQGRSRSQVNGNSGALIKEEKSDHRLPAPSQCALSRDSNECNNGNRYLPMNNREKNHLQEQKLETVAQRKED [FAM120C]”: the “solubility in G1/S (log2)” value with HeLa Kyoto [1] is 0.0177. In addition, the “solubility change mitosis (log2)” value in the series with HeLa Kyoto [2] is -0.0292.

For “MGVSKLDILYRRLLLTKLFIRGWGRPEDLKRLFEFRKMIGNRERCQNLVSSDYPVHIDKIEEQSDCKILDGHFVSPMAHYVPDIMPIESVIARFQFIVPKEWNSKYRPVCIHLAGTGDHHYWRRRTLMARPMIKEARMASLLLENPYYGCRKPKDQVRSSLKNVSDLFVMGGALVLESAALLHWLEREGYGPLGMTGISMGGHMASLAVSNWPKPMPLIPCLSWSTASGVFTTTDSFKMGQEFVKHFTSSADKLTNLNLVSRTLNLDISNQVVSQKPADCHNSSKTSVSATSEGLLLQDTSKMKRFNQTLSTNKSGYTSRNPQSYHLLSKEQSRNSLRKESLIFMKGVMDECTHVANFSVPVDPSLIIVVQAKEDAYIPRTGVRSLQEIWPGCEIRYLEGGHISAYLFKQGLFR [ABHD18]”, the “solubility in G1/S (log2)” value in the series with HeLa Kyoto [1] is -0.33. Moreover, the “solubility change mitosis (log2)” value with HeLa Kyoto [2] is -0.181.

Take “MHARGPHGQLSPALPLASSVLMLLMSTLWLVGAGPGLVLAPELLLDPWQVHRLLTHALGHTALPGLLLSLLLLPTVGWQQECHLGTLRFLHASALLALASGLLAVLLAGLGLSSAAGSCGYMPVHLAMLAGEGHRPRRPRGALPPWLSPWLLLALTPLLSSEPPFLQLLCGLLAGLAYAAGAFRWLEPSERRLQVLQEGVLCRTLAGCWPLRLLATPGSLAELPVTHPAGVRPPIPGPPYVASPDLWSHWEDSALPPPSLRPVQPTWEGSSEAGLDWAGASFSPGTPMWAALDEQMLQEGIQASLLDGPAQEPQSAPWLSKSSVSSLRLQQLERMGFPTEQAVVALAATGRVEGAVSLLVGGQVGTETLVTHGKGGPAHSEGPGPP [RHBDD3]”: the “solubility in G1/S (log2)” value in the series on HeLa Kyoto [1] was -0.0767. Also, in the series with HeLa Kyoto [2], the “solubility change mitosis (log2)” value was 0.0168.

On to “MHSSNPKVRSSPSGNTQSSPKSKQEVMVRPPTVMSPSGNPQLDSKFSNQGKQGGSASQSQPSPCDSKSGGHTPKALPGPGGSMGLKNGAGNGAKGKGKRERSISADSFDQRDPGTPNDDSDIKECNSADHIKSQDSQHTPHSMTPSNATAPRSSTPSHGQTTATEPTPAQKTPAKVVYVFSTEMANKAAEAVLKGQVETIVSFHIQNISNNKTERSTAPLNTQISALRNDPKPLPQQPPAPANQDQNSSQNTRLQPTPPIPAPAPKPAAPPRPLDRESPGVENKLIPSVGSPASSTPLPPDGTGPNSTPNNRAVTPVSQGSNSSSADPKAPPPPPVSSGEPPTLGENPDGLSQEQLEHRERSLQTLRDIQRMLFPDEKEFTGAQSGGPQQNPGVLDGPQKKPEGPIQAMMAQSQSLGKGPGPRTDVGAPFGPQGHRDVPFSPDEMVPPSMNSQSGTIGPDHLDHMTPEQIAWLKLQQEFYEEKRRKQEQVVVQQCSLQDMMVHQHGPRGVVRGPPPPYQMTPSEGWAPGGTEPFSDGINMPHSLPPRGMAPHPNMPGSQMRLPGFAGMINSEMEGPNVPNPASRPGLSGVSWPDDVPKIPDGRNFPPGQGIFSGPGRGERFPNPQGLSEEMFQQQLAEKQLGLPPGMAMEGIRPSMEMNRMIPGSQRHMEPGNNPIFPRIPVEGPLSPSRGDFPKGIPPQMGPGRELEFGMVPSGMKGDVNLNVNMGSNSQMIPQKMREAGAGPEEMLKLRPGGSDMLPAQQKMVPLPFGEHPQQEYGMGPRPFLPMSQGPGSNSGLRNLREPIGPDQRTNSRLSHMPPLPLNPSSNPTSLNTAPPVQRGLGRKPLDISVAGSQVHSPGINPLKSPTMHQVQSPMLGSPSGNLKSPQTPSQLAGMLAGPAAAASIKSPPVLGSAAASPVHLKSPSLPAPSPGWTSSPKPPLQSPGIPPNHKAPLTMASPAMLGNVESGGPPPPTASQPASVNIPGSLPSSTPYTMPPEPTLSQNPLSIMMSRMSKFAMPSSTPLYHDAIKTVASSDDDSPPARSPNLPSMNNMPGMGINTQNPRISGPNPVVPMPTLSPMGMTQPLSHSNQMPSPNAVGPNIPPHGVPMGPGLMSHNPIMGHGSQEPPMVPQGRMGFPQGFPPVQSPPQQVPFPHNGPSGGQGSFPGGMGFPGEGPLGRPSNLPQSSADAALCKPGGPGGPDSFTVLGNSMPSVFTDPDLQEVIRPGATGIPEFDLSRIIPSEKPSQTLQYFPRGEVPGRKQPQGPGPGFSHMQGMMGEQAPRMGLALPGMGGPGPVGTPDIPLGTAPSMPGHNPMRPPAFLQQGMMGPHHRMMSPAQSTMPGQPTLMSNPAAAVGMIPGKDRGPAGLYTHPGPVGSPGMMMSMQGMMGPQQNIMIPPQMRPRGMAADVGMGGFSQGPGNPGNMMF [BCL9]”, for which the “solubility in G1/S (log2)” value in the series on HeLa Kyoto [1] is 0.308. For the same sequence, the “solubility change mitosis (log2)” value in the series with HeLa Kyoto [2] is 0.0803.

For the sequence “MIKCLSVEVQAKLRSGLAISSLGQCVEELALNSIDAEAKCVAVRVNMETFQVQVIDNGFGMGSDDVEKVGNRYFTSKCHSVQDLENPRFYGFRGEALANIADMASAVEISSKKNRTMKTFVKLFQSGKALKACEADVTRASAGTTVTVYNLFYQLPVRRKCMDPRLEFEKVRQRIEALSLMHPSISFSLRNDVSGSMVLQLPKTKDVCSRFCQIYGLGKSQKLREISFKYKEFELSGYISSEAHYNKNMQFLFVNKRLVLRTKLHKLIDFLLRKESIICKPKNGPTSRQMNSSLRHRSTPELYGIYVINVQCQFCEYDVCMEPAKTLIEFQNWDTLLFCIQEGVKMFLKQEKLFVELSGEDIKEFSEDNGFSLFDATLQKRVTSDERSNFQEACNNILDSYEMFNLQSKAVKRKTTAENVNTQSSRDSEATRKNTNDAFLYIYESGGPGHSKMTEPSLQNKDSSCSESKMLEQETIVASEAGENEKHKKSFLEHSSLENPCGTSLEMFLSPFQTPCHFEESGQDLEIWKESTTVNGMAANILKNNRIQNQPKRFKDATEVGCQPLPFATTLWGVHSAQTEKEKKKESSNCGRRNVFSYGRVKLCSTGFITHVVQNEKTKSTETEHSFKNYVRPGPTRAQETFGNRTRHSVETPDIKDLASTLSKESGQLPNKKNCRTNISYGLENEPTATYTMFSAFQEGSKKSQTDCILSDTSPSFPWYRHVSNDSRKTDKLIGFSKPIVRKKLSLSSQLGSLEKFKRQYGKVENPLDTEVEESNGVTTNLSLQVEPDILLKDKNRLENSDVCKITTMEHSDSDSSCQPASHILNSEKFPFSKDEDCLEQQMPSLRESPMTLKELSLFNRKPLDLEKSSESLASKLSRLKGSERETQTMGMMSRFNELPNSDSSRKDSKLCSVLTQDFCMLFNNKHEKTENGVIPTSDSATQDNSFNKNSKTHSNSNTTENCVISETPLVLPYNNSKVTGKDSDVLIRASEQQIGSLDSPSGMLMNPVEDATGDQNGICFQSEESKARACSETEESNTCCSDWQRHFDVALGRMVYVNKMTGLSTFIAPTEDIQAACTKDLTTVAVDVVLENGSQYRCQPFRSDLVLPFLPRARAERTVMRQDNRDTVDDTVSSESLQSLFSEWDNPVFARYPEVAVDVSSGQAESLAVKIHNILYPYRFTKGMIHSMQVLQQVDNKFIACLMSTKTEENGEAGGNLLVLVDQHAAHERIRLEQLIIDSYEKQQAQGSGRKKLLSSTLIPPLEITVTEEQRRLLWCYHKNLEDLGLEFVFPDTSDSLVLVGKVPLCFVEREANELRRGRSTVTKSIVEEFIREQLELLQTTGGIQGTLPLTVQKVLASQACHGAIKFNDGLSLQESCRLIEALSSCQLPFQCAHGRPSMLPLADIDHLEQEKQIKPNLTKLRKMAQAWRLFGKAECDTRQSLQQSMPPCEPP [MLH3]”, in the series on HeLa Kyoto [1], the “solubility in G1/S (log2)” value was -0.402. For the same sequence, the “solubility change mitosis (log2)” value in the series with HeLa Kyoto [2] stood at 0.153.

Regarding “MILQRLFRFSSVIRSAVSVHLRRNIGVTAVAFNKELDPIQKLFVDKIREYKSKRQTSGGPVDASSEYQQELERELFKLKQMFGNADMNTFPTFKFEDPKFEVIEKPQA [ATP5J]”, the “solubility in G1/S (log2)” value in the series with HeLa Kyoto [1] was -0.962. The “solubility change mitosis (log2)” value with HeLa Kyoto [2] is 0.55.

With “MIMNKMKNFKRRFSLSVPRTETIEESLAEFTEQFNQLHNRRNENLQLGPLGRDPPQECSTFSPTDSGEEPGQLSPGVQFQRRQNQRRFSMEDVSKRLSLPMDIRLPQEFLQKLQMESPDLPKPLSRMSRRASLSDIGFGKLETYVKLDKLGEGTYATVFKGRSKLTENLVALKEIRLEHEEGAPCTAIREVSLLKNLKHANIVTLHDLIHTDRSLTLVFEYLDSDLKQYLDHCGNLMSMHNVKIFMFQLLRGLAYCHHRKILHRDLKPQNLLINERGELKLADFGLARAKSVPTKTYSNEVVTLWYRPPDVLLGSTEYSTPIDMWGVGCIHYEMATGRPLFPGSTVKEELHLIFRLLGTPTEETWPGVTAFSEFRTYSFPCYLPQPLINHAPRLDTDGIHLLSSLLLYESKSRMSAEAALSHSYFRSLGERVHQLEDTASIFSLKEIQLQKDPGYRGLAFQQPGRGKNRRQSIF [CDK18]”, the “solubility in G1/S (log2)” value in the series on HeLa Kyoto [1] is 0.0482. In addition, the “solubility change mitosis (log2)” value in the series on HeLa Kyoto [2] is -0.00432.

Take “MIRDLSKMYPQTRHPAPHQPAQPFKFTISESCDRIKEEFQFLQAQYHSLKLECEKLASEKTEMQRHYVMYYEMSYGLNIEMHKQAEIVKRLNAICAQVIPFLSQEHQQQVVQAVERAKQVTMAELNAIIGQQLQAQHLSHGHGLPVPLTPHPSGLQPPAIPPIGSSAGLLALSSALGGQSHLPIKDEKKHHDNDHQRDRDSIKSSSVSPSASFRGAEKHRNSADYSSESKKQKTEEKEIAARYDSDGEKSDDNLVVDVSNEDPSSPRGSPAHSPRENGLDKTRLLKKDAPISPASIASSSSTPSSKSKELSLNEKSTTPVSKSNTPTPRTDAPTPGSNSTPGLRPVPGKPPGVDPLASSLRTPMAVPCPYPTPFGIVPHAGMNGELTSPGAAYAGLHNISPQMSAAAAAAAAAAAYGRSPVVGFDPHHHMRVPAIPPNLTGIPGGKPAYSFHVSADGQMQPVPFPPDALIGPGIPRHARQINTLNHGEVVCAVTISNPTRHVYTGGKGCVKVWDISHPGNKSPVSQLDCLNRDNYIRSCRLLPDGRTLIVGGEASTLSIWDLAAPTPRIKAELTSSAPACYALAISPDSKVCFSCCSDGNIAVWDLHNQTLVRQFQGHTDGASCIDISNDGTKLWTGGLDNTVRSWDLREGRQLQQHDFTSQIFSLGYCPTGEWLAVGMENSNVEVLHVTKPDKYQLHLHESCVLSLKFAHCGKWFVSTGKDNLLNAWRTPYGASIFQSKESSSVLSCDISVDDKYIVTGSGDKKATVYEVIY [TLE4]”: the “solubility in G1/S (log2)” value in the series on HeLa Kyoto [1] was -0.00686. Moreover, the “solubility change mitosis (log2)” value with HeLa Kyoto [2] is -0.13.
